Measured values reported in PMC9151340.
Substitutions are numbered along the chain they refer to.

T1: GlnR (UniProt F2RFQ1 1-276)
T1 sequence: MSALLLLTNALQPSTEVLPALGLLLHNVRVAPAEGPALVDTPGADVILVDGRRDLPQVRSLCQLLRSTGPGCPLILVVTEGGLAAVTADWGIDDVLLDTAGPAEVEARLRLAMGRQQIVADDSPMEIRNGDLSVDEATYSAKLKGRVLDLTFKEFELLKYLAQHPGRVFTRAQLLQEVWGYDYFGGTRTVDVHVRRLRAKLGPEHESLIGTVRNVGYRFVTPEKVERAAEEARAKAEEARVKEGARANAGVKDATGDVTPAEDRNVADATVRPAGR

T2: MtrA (UniProt F2R521 1-225)
T2 sequence: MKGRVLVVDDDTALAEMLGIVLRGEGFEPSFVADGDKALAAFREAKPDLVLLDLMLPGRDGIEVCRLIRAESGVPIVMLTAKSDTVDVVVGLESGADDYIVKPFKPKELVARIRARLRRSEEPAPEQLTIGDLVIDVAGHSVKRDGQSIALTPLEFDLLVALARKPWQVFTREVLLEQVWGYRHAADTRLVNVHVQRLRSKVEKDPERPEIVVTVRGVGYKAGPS

B1: mtrA WT (SVEN2756 WT) (dsDNA)
DNA 1: TACGGTGCAGGCCGACCACGGGGGCCCACGGGGGTGACATCCATGTCTGGCATCAACAC
DNA 2: GTGTTGATGCCAGACATGGATGTCACCCCCGTGGGCCCCCGTGGTCGGCCTGCACCGTA
B2: mtrA M1 (SVEN2756 M1) (dsDNA)
DNA 1: B1 DNA 1 with G34A, T35G, A37C, C38T
DNA 2: B1 DNA 2 with G22A, T23G, A25C, C26T
B3: mtrA M3 (SVEN2756 M3) (dsDNA)
DNA 1: B1 DNA 1 with G34A, T35G, A37C, C38T, G45A, T46C, C47T
DNA 2: B1 DNA 2 with G13A, A14G, C15T, G22A, T23G, A25C, C26T
B4: mtrA M2 (SVEN2756 M2) (dsDNA)
DNA 1: B1 DNA 1 with G45A, T46C, C47T
DNA 2: B1 DNA 2 with G13A, A14G, C15T
B5: nirB-WT (dsDNA)
DNA 1: GGAGATCAGCGTTCCGTACGGGAAACAGTCGGGATGCCGCCGGGTAACACCGGCCGCGC
DNA 2: GCGCGGCCGGTGTTACCCGGCGGCATCCCGACTGTTTCCCGTACGGAACGCTGATCTCC
B6: SVEN1860 WT (dsDNA)
DNA 1: GTTTCATCAGTGTTTGACCACCGGGTCACGCCCTGGTAACACCAGTCTGTGAGCCTGGT
DNA 2: ACCAGGCTCACAGACTGGTGTTACCAGGGCGTGACCCGGTGGTCAAACACTGATGAAAC

These binders were tested against T1, GlnR (assay: EMSA).
B1: binds.

What follows are binders tested against T2, MtrA (assay: EMSA).
B1: binds.
B2: no binding.
B3: no binding.
B4: no binding.
B5: binds.
B6: binds.
